In patent US20060246095A1, “Multiepitope polypeptides for cancer immunotherapy” (HADASIT MEDICAL RESEARCH SERVICES & DEVELOPMENT LTD., priority 2003, published 2006):

Tested on: T cell clone HT 2D9 (A2 restricted gp100 epitope 280-288)
Assay: Recognition assay with proteasome inhibition (IFN-γ release ELISA), clone HT 2D9
Type: cell-based, human
Conditions: transfected DC
Procedure: Dendritic cells were isolated from cytopheresis MNCs of melanoma patients with the HLA haplotypes HIA-A*0201 and HLA-DRβ1*0401. DC were generated from plastic adherent PBMCs cultured in RPMI with 10% human AB-serum, L-glutamine, penicillin-streptomycin, supplemented with GM-CSF 1000 IU/ml and IL-4 1000 IU/ml. By day 6, immature DC were harvested for electroporation.
2.5-3×10^6 DC were re-suspended in 100 μl nucleofector solution and added to 5 μg of DNA plasmid in 2-mm electrode gap cuvettes. Transfected DC were immediately plated with CM containing GM/IL4 or let mature using TNFα 100 ng/ml and PGE2 1000 ng/ml. GFP-transfected DCs were collected 16-24 hours later for FACS analysis.
HT 2D9 which reacts with A2 restricted gp100 epitope 280-288.
T cell clones were co-incubated with DC in flat 96-well plate for 24 hours. DC were plated immediately after their transfection or pulsing in 6 separated plates, in the presence of GM CSF and IL-4. 1×10^5 T cells were added to 1×10^5 pulsed or transfected DC. In the longitudinal study, T cell clones were added to the transfected/pulsed DC at the following time points: T0=immediately, +12=after 12 hours, 24, 36, 48 and 72 hours. Supernatants were collected after overnight incubation. Interferon gamma release assay was performed to evaluate T cell stimulation using the ELISA method, results are presented in pg/ml.
Lactacystin was added to DC at concentrations of 25 μM and 50 μM, 4 hours post transfection. DC were incubated with lactacystin for 70 minutes and then washed twice.
Responding T cells were added after washing the lactacystin and co-incubated. Supernatents were collected after 20 hours.
Control DC were transfected and incubated with responder T cell clones within the same time frame, without lactacystin. […]

B1: MEP-mel: melanoma multiepitope polypeptide, SEQ ID NO: 2 or 57; in Tables 2-9 delivered by transfecting DC with pcDNA3-MEP-Mel plasmid (protein)
chain: PGTMGSCRKSYYLEPGPVTVRKSYLIMDQVPFSVRKSYLYMDGTMSQVRKSYLAGIGILTVRKSYYLEPGPVTVALLIMDQVPFSVALLYMDGTMSQVALLLAGIGILTVSSLYLEPGPVTVAAYIMDQVPFSVSSLYMDGTMSQVAAYLAGIGILTV
Interferon-γ secreted to the culture medium (Lactacystin 0): 1642 pg/mL | Interferon-γ secreted to the culture medium (Lactacystin 25 μM): 244 pg/mL | Interferon-γ secreted to the culture medium (Lactacystin 50 μM): 56 pg/mL
